Results on one sequence are retold here after paper PMC10764958.

This data set deals with SARS2-NP SIM1A (poly-SUMOylated) (SARS-CoV-2) (UniProt P0DTC9). Kind of data set: MST. The conditions noted are these: MST: PBS with 0.05% Tween, room temperature.

The sequence “CACUCGCUAUGUCGAUAACAACUUCUGUGGCCCUGAUGGCUACCCUCUUGAGUGCAUUAAAGA [Cy5-RNA (SARS-CoV-2 RNA)]” had a Kd of 2.71 nM.
